We go through 2 molecules from publication PMC7935965, “RNF8 ubiquitinates RecQL4 and promotes its dissociation from DNA double strand breaks” (Oncogenesis, 2021).

The target in experiment [1] is T1, recombinant Flag-RecQL4 (human, UniProt O94761 1-1208).
T1 construct: also called purified Flag-RecQL4; source: E. coli (BL21 in the results; Rosetta (DE3) in the methods), IPTG-induced, purified
T1 sequence (looked up): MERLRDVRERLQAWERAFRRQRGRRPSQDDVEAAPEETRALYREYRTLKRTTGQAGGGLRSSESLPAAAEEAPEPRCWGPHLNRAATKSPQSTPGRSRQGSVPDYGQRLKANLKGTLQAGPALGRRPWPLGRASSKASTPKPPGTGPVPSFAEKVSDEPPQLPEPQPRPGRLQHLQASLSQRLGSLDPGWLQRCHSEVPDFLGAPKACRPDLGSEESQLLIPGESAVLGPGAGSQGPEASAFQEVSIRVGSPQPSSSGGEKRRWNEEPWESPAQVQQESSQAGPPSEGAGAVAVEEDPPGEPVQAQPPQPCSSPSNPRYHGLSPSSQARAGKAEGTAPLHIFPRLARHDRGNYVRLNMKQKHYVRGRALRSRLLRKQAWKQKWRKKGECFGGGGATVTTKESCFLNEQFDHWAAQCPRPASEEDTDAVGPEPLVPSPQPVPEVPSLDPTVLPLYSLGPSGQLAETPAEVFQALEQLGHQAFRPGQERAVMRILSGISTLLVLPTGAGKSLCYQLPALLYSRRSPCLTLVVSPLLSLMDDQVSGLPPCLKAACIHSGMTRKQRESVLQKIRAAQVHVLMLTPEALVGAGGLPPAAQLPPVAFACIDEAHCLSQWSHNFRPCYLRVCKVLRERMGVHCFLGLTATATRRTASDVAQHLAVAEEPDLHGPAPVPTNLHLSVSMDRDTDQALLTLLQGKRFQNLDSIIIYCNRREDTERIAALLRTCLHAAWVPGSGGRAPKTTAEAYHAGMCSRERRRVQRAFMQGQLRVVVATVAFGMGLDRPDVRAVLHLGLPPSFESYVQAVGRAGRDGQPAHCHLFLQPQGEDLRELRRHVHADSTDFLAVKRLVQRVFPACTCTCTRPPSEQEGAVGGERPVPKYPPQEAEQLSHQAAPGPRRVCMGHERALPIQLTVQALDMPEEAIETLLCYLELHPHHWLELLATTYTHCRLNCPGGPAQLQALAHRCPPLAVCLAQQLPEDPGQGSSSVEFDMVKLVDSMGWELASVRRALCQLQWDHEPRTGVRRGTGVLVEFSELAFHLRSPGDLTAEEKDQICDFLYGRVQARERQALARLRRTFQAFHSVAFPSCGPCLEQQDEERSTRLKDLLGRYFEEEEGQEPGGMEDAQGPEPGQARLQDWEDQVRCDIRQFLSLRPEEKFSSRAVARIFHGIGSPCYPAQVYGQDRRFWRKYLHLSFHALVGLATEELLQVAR
The experiment in a line: pull-down; GST fusion protein immobilised on glutathione Sepharose 4B at 4 °C overnight, incubated with purified Flag-RecQL4 at 4 °C for 4 h; western blot. The note with it: both partners purified.

The target in experiment [2] is T1, recombinant Flag-RecQL4. The experiment in a line: pull-down; Flag-RecQL4 immobilised on M2 beads at 4 °C overnight, GST fusion proteins added at 4 °C for 4 h; GST-RNF8 with increasing input of GST-WRAP53β; western blot. The note with it: both partners purified.

B1: GST-WRAP53β (natural protein)
chain: not shown
notes: WRAP53β; also called purified recombinant GST-WRAP53β; source: E. coli, purified (GST beads)
As for B1, in the experiment with recombinant Flag-RecQL4 [1], the binding result was “binds”.

B2: GST-RNF8 (natural protein, UniProt O76064-1 1-485, looked up)
chain: MGEPGFFVTGDRAGGRSWCLRRVGMSAGWLLLEDGCEVTVGRGFGVTYQLVSKICPLMISRNHCVLKQNPEGQWTIMDNKSLNGVWLNRARLEPLRVYSIHQGDYIQLGVPLENKENAEYEYEVTEEDWETIYPCLSPKNDQMIEKNKELRTKRKFSLDELAGPGAEGPSNLKSKINKVSCESGQPVKSQGKGEVASTPSDNLDPKLTALEPSKTTGAPIYPGFPKVTEVHHEQKASNSSASQRSLQMFKVTMSRILRLKIQMQEKHEAVMNVKKQTQKGNSKKVVQMEQELQDLQSQLCAEQAQQQARVEQLEKTFQEEEQHLQGLEIAQGEKDLKQQLAQALQEHWALMEELNRSKKDFEAIIQAKNKELEQTKEEKEKMQAQKEEVLSHMNDVLENELQCIICSEYFIEAVTLNCAHSFCSYCINEWMKRKIECPICRKDIKSKTYSLVLDNCINKMVNNLSSEVKERRIVLIRERKAKRLF
notes: RNF8; also called purified recombinant GST-RNF8; source: E. coli BL21, purified (GST beads)
Turning to B2, the binding result with recombinant Flag-RecQL4 [2] is “binds”.
